These results are taken from doi:10.1101/2025.01.28.635311 (bioRxiv, 2025).

For assay [1], the target named is bovine histone H1, labelled with NT-647-NHS dye (bovine) (UniProt P02253). Put plainly: MST.
Assay [2] addresses N-terminal cleavage product of SET (human, UniProt Q01105-2 17-175). Put plainly: SEC.

Sequence of bovine histone H1, labelled with NT-647-NHS dye (bovine) (P02253 whole entry): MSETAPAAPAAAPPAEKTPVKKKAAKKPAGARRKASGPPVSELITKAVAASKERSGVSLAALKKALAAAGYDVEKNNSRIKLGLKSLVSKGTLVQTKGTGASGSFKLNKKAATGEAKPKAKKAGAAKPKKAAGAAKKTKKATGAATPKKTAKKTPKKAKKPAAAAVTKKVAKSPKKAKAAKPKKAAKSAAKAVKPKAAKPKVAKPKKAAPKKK

Regarding “SET-FL after cleavage by legumain (cleaved SET-FL) (from UniProt Q01105-2 17-175; Q01105-2 176-277) (complex)”, in assay [1], the Kd was 3000 nM. The same measure, in the same setting: under “full-length SET (SET-FL, 2–277) (from UniProt Q01105-2 2-277) (natural protein)” stands 3000 nM.

B1: C-terminal cleavage product of SET-FL (domain or fragment, human, UniProt Q01105-2 176-277, looked up)
chain: KASRKRQHEEPESFFTWFTDHSDAGADELGEVIKDDIWPNPLQYYLVPDMDDEEGEGEEDDDDDEEEEGLEDIDEEGDEDEGEEDEDDDEGEEGEEDEGEDD
Turning to B1, the binding result in assay [2] is reported as “binds”. Same read-out and setting: under KASRKRQHEEPESFFTWFTDHSDAGADELGEVIKDDIWPNPLQYYLVPDM (domain or fragment, human, UniProt Q01105-2 176-225, looked up) [C-terminal cleavage product of SETΔC] stands “binds”.
